Results reported in article PMC3535264.

Key:
[1] = molecular target: tetrasome (DNA-(H3-H4)2 tetramer complex) (Xenopus laevis) (UniProt P84233); test: FRET or BRET
[2] = molecular target: mouse Nap1 (mNap1) single-cysteine mutant labeled with Alexa 546-C5-maleimide (mouse) (UniProt P28656); test: other fluorescence titration

Substance	Kd [1] [nM]	Kd [2] [nM]
H2A_(A488)-H2B histone dimer (from UniProt P02281 1-126) (complex)	0.7	
H2A-H2B_(A488) histone dimer (from UniProt P06897 1-130) (complex)	0.8	
uH2A containing histone dimer (uH2A-H2B) (from UniProt P0CG48 1-76; P02281 1-126) (complex)		0.5
uH2B containing histone dimer (H2A-uH2B) (from UniProt P06897 1-130; P0CG48 1-76) (complex)		0.4
unmodified H2A-H2B histone dimer (from UniProt P06897 1-130; P02281 1-126) (complex)		0.8
